Patent US20200317768A1 (published 2020)

T1: cynomolgus monkey FcγRIIa1 extracellular domain with C-terminal His-tag (cynomolgus monkey)
T1 construct: Expressed in FreeStyle 293 cells and purified; also called cyno FcγRIIa1; cynoFcgRIIa1; not shown: C-terminal His-tag
T1 chain: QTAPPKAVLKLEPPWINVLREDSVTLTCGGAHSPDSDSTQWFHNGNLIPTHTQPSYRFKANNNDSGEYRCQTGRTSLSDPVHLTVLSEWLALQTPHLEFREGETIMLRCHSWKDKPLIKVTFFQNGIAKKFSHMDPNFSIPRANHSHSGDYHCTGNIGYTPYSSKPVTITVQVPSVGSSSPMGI

T2: cynomolgus monkey FcγRIIa2 extracellular domain with C-terminal His-tag (cynomolgus monkey)
T2 construct: Expressed in FreeStyle 293 cells and purified; also called cyno FcγRIIa2; cynoFcgRIIa2; not shown: C-terminal His-tag
T2 chain: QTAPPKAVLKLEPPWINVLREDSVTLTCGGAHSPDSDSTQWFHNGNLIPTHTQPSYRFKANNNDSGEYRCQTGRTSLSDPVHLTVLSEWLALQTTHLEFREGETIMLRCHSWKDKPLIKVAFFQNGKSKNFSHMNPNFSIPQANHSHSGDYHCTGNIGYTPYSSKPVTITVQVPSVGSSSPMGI

T3: cynomolgus monkey FcγRIIa3 extracellular domain with C-terminal His-tag (cynomolgus monkey)
T3 construct: Expressed in FreeStyle 293 cells and purified; also called cyno FcγRIIa3; cynoFcgRIIa3; not shown: C-terminal His-tag
T3 chain: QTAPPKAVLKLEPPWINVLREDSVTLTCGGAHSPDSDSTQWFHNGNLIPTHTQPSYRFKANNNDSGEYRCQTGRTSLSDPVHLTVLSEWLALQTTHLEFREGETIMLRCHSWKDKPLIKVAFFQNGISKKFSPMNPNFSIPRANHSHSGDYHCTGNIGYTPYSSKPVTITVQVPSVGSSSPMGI

T4: cynomolgus monkey FcγRIIb extracellular domain with C-terminal His-tag (cynomolgus monkey)
T4 construct: Expressed in FreeStyle 293 cells and purified; also called cyno FcγRIIb; cynoFcγRIIb; not shown: C-terminal His-tag
T4 chain: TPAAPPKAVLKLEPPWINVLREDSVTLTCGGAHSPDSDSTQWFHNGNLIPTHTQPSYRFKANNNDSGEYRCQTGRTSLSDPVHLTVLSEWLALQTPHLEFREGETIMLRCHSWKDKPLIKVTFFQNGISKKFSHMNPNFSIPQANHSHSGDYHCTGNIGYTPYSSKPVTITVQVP

T5: cynomolgus monkey FcγRIIIaS extracellular domain with C-terminal His-tag (cynomolgus monkey, UniProt Q8SPW2 21-206 at identity 1.00))
T5 construct: Expressed in FreeStyle 293 cells and purified; also called cyno FcγRIIIaS; cynoFcγRIIIaS; not shown: C-terminal His-tag
T5 chain: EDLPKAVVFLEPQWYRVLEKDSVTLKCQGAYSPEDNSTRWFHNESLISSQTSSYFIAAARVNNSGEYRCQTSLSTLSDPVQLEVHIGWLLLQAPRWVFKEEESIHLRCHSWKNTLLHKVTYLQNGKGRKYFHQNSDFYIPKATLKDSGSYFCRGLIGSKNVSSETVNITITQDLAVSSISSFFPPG

T6: human FcγRIIaH extracellular domain with C-terminal His-tag (human, UniProt P12318 34-217)
T6 construct: Expressed in FreeStyle 293 cells and purified; also called human FcγRIIa (type H); FcgRIIaH; not shown: C-terminal His-tag
T6 sequence: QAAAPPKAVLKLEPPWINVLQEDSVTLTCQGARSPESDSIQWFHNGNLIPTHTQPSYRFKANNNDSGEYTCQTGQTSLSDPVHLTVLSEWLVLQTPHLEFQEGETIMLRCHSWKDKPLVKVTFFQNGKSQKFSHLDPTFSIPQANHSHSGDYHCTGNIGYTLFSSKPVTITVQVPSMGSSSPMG

T7: human FcγRIIaR extracellular domain with C-terminal His-tag (human, UniProt P12318 34-217)
T7 construct: Expressed in FreeStyle 293 cells and purified; also called human FcγRIIa (type R); FcgRIIaR; not shown: C-terminal His-tag
T7 chain: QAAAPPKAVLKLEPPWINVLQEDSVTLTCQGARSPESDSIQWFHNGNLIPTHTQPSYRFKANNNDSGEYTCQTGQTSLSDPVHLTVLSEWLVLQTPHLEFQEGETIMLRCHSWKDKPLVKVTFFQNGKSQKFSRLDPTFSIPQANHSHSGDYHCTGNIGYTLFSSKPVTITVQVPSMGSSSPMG

T8: human FcγRIIb extracellular domain with C-terminal His-tag (human, UniProt P31994 43-217)
T8 construct: Expressed in FreeStyle 293 cells and purified; also called humanFcgRIIb; not shown: C-terminal His-tag
T8 sequence: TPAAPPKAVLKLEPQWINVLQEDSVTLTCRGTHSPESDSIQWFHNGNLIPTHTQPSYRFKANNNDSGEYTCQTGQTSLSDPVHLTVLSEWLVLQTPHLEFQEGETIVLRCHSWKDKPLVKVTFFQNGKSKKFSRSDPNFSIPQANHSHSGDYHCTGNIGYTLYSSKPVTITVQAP


Columns and labels:
Test in all cases: SPR (Biacore); KD of SG1 divided by KD of the variant for this FcgR;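 note: relative to parent M103205H795-SG1 carrying the SG1 human heavy chain constant region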
[1] = biological target: T1, cynomolgus monkey FcγRIIa1 …
[2] = biological target: T2, cynomolgus monkey FcγRIIa2 …
[3] = biological target: T3, cynomolgus monkey FcγRIIa3 …
[4] = biological target: T4, cynomolgus monkey FcγRIIb extracellular …
[5] = biological target: T5, cynomolgus monkey FcγRIIIaS …
[6] = biological target: T6, human FcγRIIaH extracellular domain …
[7] = biological target: T7, human FcγRIIaR extracellular domain …
[8] = biological target: T8, human FcγRIIb extracellular domain with …
[9] = biological target: T9, human FcγRIIIaV extracellular domain with C-terminal His-tag (human, UniProt P08637 17-208)
T9 construct: Expressed in FreeStyle 293 cells and purified; also called FcgRIIIaV; not shown: C-terminal His-tag
T9 sequence (P08637 17-208 F176V): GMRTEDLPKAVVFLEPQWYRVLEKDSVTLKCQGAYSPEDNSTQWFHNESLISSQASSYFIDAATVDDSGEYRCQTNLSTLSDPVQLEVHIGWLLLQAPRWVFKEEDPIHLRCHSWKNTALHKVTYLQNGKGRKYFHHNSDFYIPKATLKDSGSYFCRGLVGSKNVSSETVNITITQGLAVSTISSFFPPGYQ

KD fold (SG1 = 1) [1] [fold]	KD fold (SG1 = 1) [2] [fold]	KD fold (SG1 = 1) [3] [fold]	KD fold (SG1 = 1) [4] [fold]	KD fold (SG1 = 1) [5] [fold]	KD fold (SG1 = 1) [6] [fold]	KD fold (SG1 = 1) [7] [fold]	KD fold (SG1 = 1) [8] [fold]	KD fold (SG1 = 1) [9] [fold]	Binder
4.3	3.8	6.3	3.8	0.12	0.6	0.8	5.6	0.17	M103205H795-MY211 / M103202L889-SK1 (antibody, human IgG1, kappa, Fc variant of M103205H795-SG1, expressed with M103202L889-SK1 as light chain) heavy: QVTLKESGPVLVKPTETLTLTCTVSGIDLSHDDISWVRQAPGKGLEWVGIISYAGSTYYASWAKGRLTISKDTSKNQVVLTMTNMDPVDTATYYCARGVPAYSHGGDLWGQGTLVTVSSASTKGPSVFPLAPSSKSTSGGTAALGCLVKDYFPEPVTVSWNSGALTSGVHTFPAVLQSSGLYSLSSVVTVPSSSLGTQTYICNVNHKPSNTKVDKKVEPKSCDKTHTCPPCPAPELLNGPVVFLFPPKPKDTLMISRTPEVTCVVVDVSDEDPEVKFNWYVDGVEVHNAKTKPREEQYNSTYRVVSVLTVLHQDWLNGKEYKCKVSNTALPKPIEKTISKAKGQPREPQVYTLPPSREEMTKNQVSLTCLVKGFYPSDIAVEWESNGQPENNYKTTPPVLDSDGSFFLYSKLTVDKSRWQQGNVFSCSVMHEALHNHYTQKSLSLSP light: DIVMTQSPATLSLSPGERATLSCTSSQSVYHANWLSWFQQKPGQPPKLLIYWASTLAYGVPSRFSGSGSGTDFTLTISSLQPEDAATYYCAGGYGGGRYAFGQGTKVEIKRTVAAPSVFIFPPSDEQLKSGTASVVCLLNNFYPREAKVQWKVDNALQSGNSQESVTEQDSKDSTYSLSSTLTLSKADYEKHKVYACEVTHQGLSSPVTKSFNRGEC
2.1	2.6	3.6	3.5	0.08	0.5	0.1	0.9	0.01	M103205H795-MY288 / M103202L889-SK1 (antibody, human IgG1, kappa, Fc variant of M103205H795-SG1, expressed with M103202L889-SK1 as light chain) heavy: not shown light: DIVMTQSPATLSLSPGERATLSCTSSQSVYHANWLSWFQQKPGQPPKLLIYWASTLAYGVPSRFSGSGSGTDFTLTISSLQPEDAATYYCAGGYGGGRYAFGQGTKVEIKRTVAAPSVFIFPPSDEQLKSGTASVVCLLNNFYPREAKVQWKVDNALQSGNSQESVTEQDSKDSTYSLSSTLTLSKADYEKHKVYACEVTHQGLSSPVTKSFNRGEC
5.7	9.6	5.9	4.9	0.14	0.9	0.8	7.3	0.12	M103205H795-MY212 / M103202L889-SK1 (antibody, human IgG1, kappa, Fc variant of M103205H795-SG1, expressed with M103202L889-SK1 as light chain) heavy: QVTLKESGPVLVKPTETLTLTCTVSGIDLSHDDISWVRQAPGKGLEWVGIISYAGSTYYASWAKGRLTISKDTSKNQVVLTMTNMDPVDTATYYCARGVPAYSHGGDLWGQGTLVTVSSASTKGPSVFPLAPSSKSTSGGTAALGCLVKDYFPEPVTVSWNSGALTSGVHTFPAVLQSSGLYSLSSVVTVPSSSLGTQTYICNVNHKPSNTKVDKKVEPKSCDKTHTCPPCPAPELLNGPVVFLFPPKPKDTLMISRTPEVTCVVVDVSDEDPEVKFNWYVDGVEVHNAKTKPREELYNSTYRVVSVLTVLHQDWLNGKEYKCKVSNTALPKPIEKTISKAKGQPREPQVYTLPPSREEMTKNQVSLTCLVKGFYPSDIAVEWESNGQPENNYKTTPPVLDSDGSFFLYSKLTVDKSRWQQGNVFSCSVMHEALHNHYTQKSLSLSP light: DIVMTQSPATLSLSPGERATLSCTSSQSVYHANWLSWFQQKPGQPPKLLIYWASTLAYGVPSRFSGSGSGTDFTLTISSLQPEDAATYYCAGGYGGGRYAFGQGTKVEIKRTVAAPSVFIFPPSDEQLKSGTASVVCLLNNFYPREAKVQWKVDNALQSGNSQESVTEQDSKDSTYSLSSTLTLSKADYEKHKVYACEVTHQGLSSPVTKSFNRGEC
